The results in this text go back to doi:10.1101/2023.02.09.527830.

Broadly, the stoichiometry N is the number of molecules, sites or subunits per partner or assembly. A word on the Kd: it is the equilibrium constant for the complex coming apart. The low end stands for tighter binding, the high end for weaker binding.

Experiment [1] deals with Lassa virus nucleoprotein (NP), AV strain (Lassa virus (AV strain)). Nature of the experiment: negative-stain electron microscopy.
For experiment [2] the target is unchanged. Nature of the experiment: native MS.
For experiment [3] the target is unchanged. Nature of the experiment: SEC. On the technique in general: Size exclusion chromatography separates by hydrodynamic size, large species first.
Experiment [4] has the same target. Nature of the experiment: native MS. This is another data set of the same source.
In experiment [5] the target is Lassa virus Z protein, AV strain (Lassa virus (AV strain)). Nature of the experiment: native MS.

Several values for one entry are separate records, joined by “and”; a condition that tells them apart may be missing. Equal entries are not always repeated. Where only a bound is given, the exact number is not on record here.

On to “Lassa virus nucleoprotein (NP), AV strain (natural protein)”, for which the stoichiometry N in experiment [1] is 3; in experiment [2] it was 4 and 5 and 6; in experiment [3], 3; in experiment [4], 2 and 3.
As for “Lassa virus Z protein, AV strain (natural protein)”, the stoichiometry N in experiment [5] was less than 6; in experiment [4], less than 3. The substance also came in with a Kd in experiment [4] of 30 µM.
